The results in this text go back to patent US20170158768A1 (PENN STATE RESEARCH FOUNDATION, published 2017).

This assay deals with T1, CD11b (mouse, UniProt P05555 17-1153).
T1 construct: Endogenous protein immunoprecipitated from Raw264.7 macrophage extracts with monoclonal CD11b antibody; Its integrin beta partner is not mentioned
As to the kind of experiment: co-immunoprecipitation with monoclonal CD11b antibody, Western blot. For orientation: In western blotting, separated proteins are transferred to a membrane and probed.

T1 sequence (P05555 17-1153 limits assumed): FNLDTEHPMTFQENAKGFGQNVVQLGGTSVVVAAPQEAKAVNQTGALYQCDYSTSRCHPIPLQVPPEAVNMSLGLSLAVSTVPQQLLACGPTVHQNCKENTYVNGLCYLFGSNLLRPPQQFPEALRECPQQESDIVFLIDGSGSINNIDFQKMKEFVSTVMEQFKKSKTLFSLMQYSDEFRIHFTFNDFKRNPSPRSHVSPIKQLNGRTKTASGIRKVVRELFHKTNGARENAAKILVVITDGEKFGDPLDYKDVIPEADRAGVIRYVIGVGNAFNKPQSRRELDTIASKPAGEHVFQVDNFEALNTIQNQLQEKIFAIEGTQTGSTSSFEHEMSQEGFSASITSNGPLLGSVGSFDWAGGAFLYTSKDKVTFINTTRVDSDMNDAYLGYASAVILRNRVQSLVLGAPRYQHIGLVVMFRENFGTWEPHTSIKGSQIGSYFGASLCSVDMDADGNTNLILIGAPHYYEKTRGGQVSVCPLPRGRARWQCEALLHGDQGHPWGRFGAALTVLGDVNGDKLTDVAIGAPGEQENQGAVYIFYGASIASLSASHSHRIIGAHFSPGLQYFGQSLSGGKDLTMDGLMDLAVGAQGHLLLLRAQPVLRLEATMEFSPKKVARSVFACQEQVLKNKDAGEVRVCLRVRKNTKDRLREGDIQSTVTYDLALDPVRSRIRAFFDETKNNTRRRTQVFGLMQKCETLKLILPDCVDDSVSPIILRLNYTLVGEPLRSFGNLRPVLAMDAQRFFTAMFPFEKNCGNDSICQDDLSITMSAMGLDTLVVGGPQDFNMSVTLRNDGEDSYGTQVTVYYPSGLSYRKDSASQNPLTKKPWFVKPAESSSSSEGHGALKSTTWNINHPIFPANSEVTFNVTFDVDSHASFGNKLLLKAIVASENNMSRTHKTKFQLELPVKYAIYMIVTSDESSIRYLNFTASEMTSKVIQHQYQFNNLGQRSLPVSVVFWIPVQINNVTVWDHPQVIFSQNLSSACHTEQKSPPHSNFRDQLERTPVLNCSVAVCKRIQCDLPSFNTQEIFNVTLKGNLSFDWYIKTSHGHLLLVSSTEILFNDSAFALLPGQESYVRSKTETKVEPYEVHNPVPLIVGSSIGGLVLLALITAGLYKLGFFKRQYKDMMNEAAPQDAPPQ

B1: TLR-2 (receptor, mouse, UniProt Q9QUN7 25-784, looked up)
chain: QESLSCDASGVCDGRSRSFTSIPSGLTAAMKSLDLSFNKITYIGHGDLRACANLQVLILKSSRINTIEGDAFYSLGSLEHLDLSDNHLSSLSSSWFGPLSSLKYLNLMGNPYQTLGVTSLFPNLTNLQTLRIGNVETFSEIRRIDFAGLTSLNELEIKALSLRNYQSQSLKSIRDIHHLTLHLSESAFLLEIFADILSSVRYLELRDTNLARFQFSPLPVDEVSSPMKKLAFRGSVLTDESFNELLKLLRYILELSEVEFDDCTLNGLGDFNPSESDVVSELGKVETVTIRRLHIPQFYLFYDLSTVYSLLEKVKRITVENSKVFLVPCSFSQHLKSLEFLDLSENLMVEEYLKNSACKGAWPSLQTLVLSQNHLRSMQKTGEILLTLKNLTSLDISRNTFHPMPDSCQWPEKMRFLNLSSTGIRVVKTCIPQTLEVLDVSNNNLDSFSLFLPRLQELYISRNKLKTLPDASLFPVLLVMKIRENAVSTFSKDQLGSFPKLETLEAGDNHFVCSCELLSFTMETPALAQILVDWPDSYLCDSPPRLHGHRLQDARPSVLECHQAALVSGVCCALLLLILLVGALCHHFHGLWYLRMMWAWLQAKRKPKKAPCRDVCYDAFVSYSEQDSHWVENLMVQQLENSDPPFKLCLHKRDFVPGKWIIDNIIDSIEKSHKTVFVLSENFVRSEWCKYELDFSHFRLFDENNDAAILVLLEPIERKAIPQRFCKLRKIMNTKTYLEWPLDEGQQEVFWVNLRTAIKS
For B1, the binding result is listed as “no binding”.

B2: CD36 (receptor, mouse, UniProt Q08857 1-472, looked up)
chain: MGCDRNCGLIAGAVIGAVLAVFGGILMPVGDMLIEKTIKREVVLEEGTTAFKNWVKTGTTVYRQFWIFDVQNPDDVAKNSSKIKVKQRGPYTYRVRYLAKENITQDPEDHTVSFVQPNGAIFEPSLSVGTEDDNFTVLNLAVAAAPHIYQNSFVQVVLNSLIKKSKSSMFQTRSLKELLWGYKDPFLSLVPYPISTTVGVFYPYNDTVDGVYKVFNGKDNISKVAIIESYKGKRNLSYWPSYCDMINGTDAASFPPFVEKSRTLRFFSSDICRSIYAVFGSEIDLKGIPVYRFVLPANAFASPLQNPDNHCFCTEKVISNNCTSYGVLDIGKCKEGKPVYISLPHFLHASPDVSEPIEGLHPNEDEHRTYLDVEPITGFTLQFAKRLQVNILVKPARKIEALKNLKRPYIVPILWLNETGTIGDEKAEMFKTQVTGKIKLLGMVEMALLGIGVVMFVAFMISYCACKSKNGK
Take B2: the binding result was “no binding”.
